Measurements: publication PMC9040003 (Science (New York, N.Y.), 2022)

Key:
Format in all cases: binding, Arabidopsis thaliana
[1] = system: ANJ ectodomain (MBP-tagged); conditions: MBP-tagged ectodomain purified from Escherichia coli; biotinylated peptide
[2] = system: FER ectodomain (6×His-tagged); conditions: 6×His-tagged ectodomain purified from insect cells; biotinylated peptide
[3] = system: ANJ ectodomain (6×His-tagged); conditions: 6×His-tagged ectodomain purified from insect cells; biotinylated peptide
[4] = system: FER ectodomain (MBP-tagged); conditions: MBP-tagged ectodomain purified from Escherichia coli; biotinylated peptide
[5] = system: HERK1 ectodomain (6×His-tagged); conditions: 6×His-tagged ectodomain purified from insect cells; biotinylated peptide
[6] = system: HERK1 ectodomain (MBP-tagged); conditions: MBP-tagged ectodomain purified from Escherichia coli; biotinylated peptide

B1: RALF16: RALF (rapid alkalinization factor) peptide, pollen tube–specific, Arabidopsis (peptide)
peptide: RTLGYGSIKGDRIPACGYKNPNSCVKQPVNHYHRGCEKITRCARDAARYTESFNVDDDESPIINLH
modifications: also: biotin, position not given here
bind: binding to ANJ ectodomain (pull-down) [1] | binding to FER ectodomain (pull-down) [2] | binding to ANJ ectodomain (pull-down) [3] | binding to FER ectodomain (pull-down) [4] | binding to HERK1 ectodomain (pull-down) [5] | binding to HERK1 ectodomain (pull-down) [6]
